Experimental data reported in the DeepSol protein solubility set.

assay: soluble on expression in E. coli; label from the status in PepcDB or PDB records

| Sequence | soluble on expression in E. coli |
| --- | --- |
| MTISTNHSLASRQQLKQGKPFSILVLGTDVGALGRGTSYAGNTDTLELITVNPKKHTLTTTAIPRDTLVRVETKNKIEYTKINAAYALGGPREIKKQVHELLDVPVDYYALVNMGGLEKTVNAVGGVTVNNPFAFKYEGHTYPKGKQYLNGSEALGYSRMRYDDPDNDYGRQKRGQQVLLSALTKVNKSKNIMQMNSLLDTAKDNVRTDLPLDDLMTLYKNYHGALADTQSDHLQGKNATIDNFSFQIAPNWEMQRLSDNTRQALGLTKVKVNNIQTKMNDMQTNWNGYNNVNYVLPNNAQVYIPVNKVLEHHHHHH | soluble |
| MTITPPTPNGDLHIGHIAGPFLAADVFTRVQRQRGHDCVLVSYSDDYQSYMLRKGLEQGVDPVVLAHRNSDRIEASLAAINIKPDNWMRPHNNPWFAEAVGEVFTALRDAGAIEFRDSSEPYCPDCAVWGYEAFARGQCNYCGAESDASQCENCAQAPDAELMSGLHCKLCQQPSQWKTAHRAFLKLADFKPQLGNRLLGQAWRKPLDSWLRDTLEHLHDWGVTRPGDGGLDLQADGACRVHTWFMGLAGYMAAFREYADSIGRPELFGQYWQSGQGTLVHFLGFDCVFSHAIVYPAQLSVLQGIKVRQRFVPNQFLKLDGLNLSTSRNHAIWVGDLARQACADSARLYLASIAPEDSEGDFRMTHFFEWREELFNGF | not soluble |
| MTKDQNGTWEMESNENFEGYMKALDIDFATRKIAVRLTQTKIIVQDGDNFKTKTNSTFRNYDLDFTVGVEFDEHTKGLDGRNVKTLVTWEGNTLVCVQKGEKENRGWKQWVEGDKLYLELTCGDQVCRQVFKKK | soluble |
| MTKEERISRATELFKSGYNCSQSVVAAFADMYGFTEEQALRMAASFGGGIGRMRETCGAACGMFLLAGLEKGAIDGADREGKAANYALVQELAAEFKKRNGSLNCGELLGLKKKAPVSSEPEARTEQYYAKRPCSKMVEEAARIWAEYLEKEKK | not soluble |
| MTKETTQHRSGERIARFADIEVLSYRADLFGTLTPKQRMLCYHLSEAALRGRDITTIQNCRYNLWVRSLMERIYTHLSKSERTDDFALLEEYLFCIWFANGIHHHYSGAKFIARFSPGFLRAALREAGVELEPEEQVLLERVLYDTDFLPKQTEQSGEEDIIKASSVNFYAPGITRAEAESHYKNLIEALPENEKSCPPSFGLNTRLIRSTSGELKDEVCCIDGLYGPAIEAVVASLEAAIPYTENEEQAACIRLLCDYYRTGDIRLYDRFCIRWVENNRTRIDFINGFTEVYADPIGIHGSWEGLVHMQDEEAGRRTRIISEHAGWFEAHSPIDARFRKKNPHGISATVVNVLTIAGDSYPATPIGINLPNADWIRAEHGSKSVTIDNITDAYNHAARGTGLYEEFIPDEEVRRHVELHADLTDSLHTDLHECLGHGSGQLLPGVPGDALGEHASTLEETRADLFALYFLADPKMIELGLLTDPDAYKANYYKYMLNGLMTQLVRIKRGEEIEEAHMRNRALIARYVLEHAERPGAMSLVCEEGKTALVIKDYEAVRAIIAGLLTEVQRIKSEGDYTAGKALVERYAVHVDPLLHEEVLTRYAKLDIAPYKGFVNPRLRPVYNSEGRLTDATIEYTEGYAEQMLRYSAEYSFLPTDSPLLQEARRLRSHLRRAMDGVLSASMREKGLHYGINFGVTREHLLRLARTADASAPLADYLWRRDVRETKILATMIFPAEELTHEQATRLLREADNVELREQLTANLLERMPEAIRSIGRWIESKETTPDMMTGVLTLAARLFTRGIFPEDVPAEKLLTLAILHLSDEEQKAELRRASALLLKRYGRGSAERTKKVLCLLPESSQDTAPVLYELCEDIRFELDFYPKDE | not soluble |
| MTKPLDGINVLDFTHVQAGPACTQMMGFLGANVIKIERRGSGDMTRGWLQDKPNVDSLYFTMFNCNKRSIELDMKTPEGKELLEQMIKKADVMVENFGPGALDRMGFTWEYIQELNPRVILASVKGYAEGHANEHLKVYENVAQCSGGAAATTGFWDGPPTVSGAALGDSNSGMHLMIGILAALEIRHKTGRGQKVAVAMQDAVLNLVRIKLRDQQRLERTGILAEYPQAQPNFAFDRDGNPLSFDNITSVPRGGNAGGGGQPGWMLKCKGWETDADSYVYFTIAANMWPQICDMIDKPEWKDDPAYNTFEGRVDKLMDIFSFIETKFADKDKFEVTEWAAQYGIPCGPVMSMKELAHDPSLQKVGTVVEVVDEIRGNHLTVGAPFKFSGFQPEITRAPLLGEHTDEVLKELGLDDAKIKELHAKQVV | soluble |
| MTKRHVSLPADAKDVRRAFVSGVDERLSAAETPDELATAVTGTLADLRGERDAYEAWRDGDDVRPAAAARLATLDPRNASLESEYYAEKDEAAFARSKPLQWLWRQFDTTPLADNVDVALPFRRMLAGHLFAGVGEDVRLFKGITMTYGHNIELGDNAVVHDGVHLDDRGELVVGARASVSNGAHLYTHDHDVVDQTDVTNYRTEIGADARVTQGALVRAGVRVGENALVGSRSVVQGDVPAHHIAVGSPAESVRVKPGWEAVAAPLDAGLEHHHHHH | soluble |
| MTKSELMVRLAEVFAAKNGTHLLAKDVEYSVKVLVDTMTRSLARGQRIEIRGFGSFDLNHRPARIGRNPKTGERVEVPEKHVPHFKPGKELRERVDLALKENAN | not soluble |
| MTKSKIIEIGPLVPAFEEEKIVILFGPTATNELREISVIHEFEAAPQSALSKGNTLQIGDQVYIIEEVGTEANKNLEELGHISIYFRSGQNEVLPGAIVVSPEVFPTLAIGDTIQ | not soluble |
| MTKTMIRLASEQDAEKLQQLMHEAFTPLRELGIDWPSVNANLDAVKENIDKNTTFVMTIDDEIISTITVRYPWGSVKSISGYPFVWWFATNPEYEGKGYGSQLLTYVEEAFLRDTLKSAAVTLGTSARLHPWLLKIYEKRGYEIYSEHENDDGDLGVIMRKVLIPERFDETILGQPPF | not soluble |
| MTKVDFWPTLKDAYEPLYPQQLEILRQQVVSEGGPTATIQSRFNYAWGLIKSTDVNDERLGVKILTDIYKEAESRRRECLYYLTIGCYKLGEYSMAKRYVDTLFEHERNNKQVGALKSMVEDKIQKETL | soluble |
| MTKVTIKAPSDYLQTDWSGGETNQLFLYPEDGDYKKREFSYRLSTATVALRQTTFTRLDGYHRILMSLDKPITLSDLSHAKEISLAPFQPYAFEGDTRIVSRGTCQDINLMYDDQYQGQLLPVWSDTPFEAPKADCQLLYALSKLTYSVTNQANQELEANHLLVTEQEASLSDLKVCLNQTSPAQTPVAVWAGLWYKT | not soluble |
| MTLDDSSLQKFGFIKRETLGSINIDPLQTGGLLTGAAKQALVEWGDGYSVCDFCGGVLDLVKKPPIHDFVHKALPEFLGCDEARVTNGARESKFAVMHSMGKPGDWVVLDGLAHYSSYVAAERAGLNIEVVPHAGSPEYHLDPGRYGKAIEEVTKENGKPPVLALVTYPDGSYGNIPDAAKIASVCHEYDVPLLLNGAYSVGRMPVSAKEIGADFIVGSGHKSMAASGPVGVLGVSEEYAPVVFRKSVHNKVKEIELLGCTARGATVMTLMASFPEVVKRTRNWDQEVENARWFSSRLEGMGFIQRGQKPHSHDLMFFEAPGFYEISQKVKNGRYFLYRELKERNIHGIKSGLTKYFKLSTFGLGKEKLGTVADAFEDILKKYENI | not soluble |
| MTLDLFAPQPKTNLLPYDGDVEDYGCFISTAEAEQYFQYFLKHLAWRHDEARLYGKHFITPRQVAWYGDDHYRYAYSGIMRDSLPWDPQLLILKQQIEQTLAERFNSCLANLYQEGTQGMAWHSDGDMSLAKQTTIASLSLGATRKFCFRHLRTKEKIEMQLQSGQLIVMRGETQQHWQHAIMKSQKVIHPRINLTFRQFLLLEHHHHHH | not soluble |
| MTLGLKDLYYAVCTEADGAESYGTPKKMAEAMSADLSVKTADGSLYADDTLSESVTEFASGTLKLGIKDLTPEVLAELLGQAVDKNSVVWAGKEDEPPYVAVGFRAKKTGGKYRYVWLLKAKFKVPSEKYETKGESIKFNTPDIEASFTTRKKDNLWKADFVGTEESAAAKTWFTAVPEKAAAMESVLEHHHHHH | soluble |
| MTLLPHLATRLFGVPLAIDRPKLDVILSVLGPRVGLAGLAPPGDYTPPERNPVRGHAQIAVIPIHGTLVRRTVGLEAESGLASYTAIGEQLDAALADPGIAAILLDVDSPGGESGGVFDLADRIRVAAAIKPVWAAANDMAFSAAYALACAASRVFVSRTGGVGSIGVIAMHVDQSVKDAKDGVRYTAVFAGARKNDLNPHEPITDEAQAQLQAEVSRIYRLFVATVGSYRGLSAEAVTATEAGLFFGQDAVAAGLADAVGTFDDALAQLTASLSVPAPVASARTPSLNLQMDCSMNTQPDPAAVSVPAADAIGTTAQPPVVASPPAASVASHTDAVEIAQLCTLAGRTDLIAGFLEARATPERVRSQLLAARAEASPEIASRIDPHAQAVSADASHPASPRNPLLQAVKKRLGIQLEHHHHHH | soluble |
| MTLNYHAHGKEIEASYRRASDDSDGDKWVIFDYEGNSNTLRVKEEGTGGLEEFADSFSSGKLQFGVISVRLSSDVFPKIVLVHWQGEGVPTLRLASTTPHAEEFRRFLKTVHIVLHARSEIDIEPDAIRKEVRKLPAANANAIVESTYSMPEKVNSVYQPTNAHSELSSEARENFWSTTNQEEKRRQADEKVAHAKQQKQYEADRDRTAAAIHTKAEDFQPEKVNSVYKPTKPHVELKTVKREEFWSKMNEEEKLRQEEEKTAREQAHKQFEADRQRMASEIHSKTENYQPDKVTSVYKPTKPHVEISSSAREEFWSKMNEEEQRRQAEEKEAQAQKQKEFETDRKRIADDLHGKAQISDKPVPSSVNPAPAPAPTPSAGLVGSRKELFSSKPSGPVLPKPQVNGSPKKWPPVGTTSPPREPVNRLTEPDEPSTYTPKPIAYEPEPMVYKPEAMKPAVSYDAYEEPPAEPAPPTFLAPTPVIAPPPPEPTPAPSHYASQYDAPPVHESFEPAVPPVSAPSHYASQYDAPPEPIDSHSSSSQLPAHIASQYDMPPVMPEEPVFAPKSSPIKVAAPPIDQYDFPPAVAEQNAMALWDYQAADDTEISFDPDDIITDIDQVDSGWWKGRAPSGRVGLFPANYVKLI | not soluble |
| MTLRAARPEFLDLFPAGAEARRLADGFTWTEGPVYVPARSAVIFSDVRQNRTWAWSDDGQLSPEMHPSHHQNGHCLNKQGHLIACSHGLRRLERQREPGGEWESIADSFEGKKLNSPNDVCLAPDGSLWFSDPTYGIDKPEEGYGGEMELPGRWVFRLAPDGTLSAPIRDRVKPNGLAFLPSGNLLVSDTGDNATHRYCLNARGETEYQGVHFTVEPGKTDGLRVDAGGLIWASAGDGVHVLTPDGDELGRVLTPQTTSNLCFGGPEGRTLYMTVSTEFWSIETNVRGLEHHHHHH | soluble |
| MTLSTINPMKKSRIDNIHHTQILFFSDENQIDQEAPYYDALLDLEKDYPEQIDKMKVYDKKEGWEDEIETVPTLMVVDQRHVVVKIEGCVKKKEDIIKPLQHVLSKLEHHHHHH | not soluble |
| MTLVSQIEAILFVVGEEGIGLEELAYLLEKSTAKTYEELTKLKEHYASDNKSALNILEVGNHFVLTTKKKYASLLKKYAQSPMSNALSQAALETLSIIAYKQPISRIEIDEIRGVQTSGSIQKLVARQLIEEKGRVDGPGRAILYGTTKYFMDYFGLKSLDELPDIQQMEDELEEELPMDLFFDRYQETNPMSETTEGEEA | not soluble |
| MTLYIIANPHAGNKNASTIVGKIQELYHTEDISVFYTEQKDDEKKQVINILRSFKESDHLMIIGGDGTLSKVMTYLPQHIPCTYYPVGSGNDFARALKIPNLKETLTAIQTERLKEINCFIYDKGLILNSLDLGFAAYVVWKASNSKIKNILNRYRLGKITYIVIAIKSLLHSSKVQVLVEGETGQQIKLNDLYFFALANNTYFGGGITIWPKASALTAELDMVYAKGHTFLKRLSILLSLVFKRHTTSKSIKHQTFKAMTVYFPKNSLIEIDGEIVELDQISLKCQKRYLYM | not soluble |
